This assay has as its target T1, purified un-tagged AGO2 (hAGO2) (human, UniProt Q9UKV8 1-859).
T1 construct: AGO2, human, un-tagged; also called un-tagged crystallography grade hAGO2; source: purified, un-tagged, crystallography grade (De and Macrae, 2011)
In words: pull-down; MBP direct binding assay: purified un-tagged hAGO2 with MBP-VO, MBP-LIMD1 or MBP-LIMD1 140-166. To be noted: both partners purified.

T1 sequence (Q9UKV8 whole entry): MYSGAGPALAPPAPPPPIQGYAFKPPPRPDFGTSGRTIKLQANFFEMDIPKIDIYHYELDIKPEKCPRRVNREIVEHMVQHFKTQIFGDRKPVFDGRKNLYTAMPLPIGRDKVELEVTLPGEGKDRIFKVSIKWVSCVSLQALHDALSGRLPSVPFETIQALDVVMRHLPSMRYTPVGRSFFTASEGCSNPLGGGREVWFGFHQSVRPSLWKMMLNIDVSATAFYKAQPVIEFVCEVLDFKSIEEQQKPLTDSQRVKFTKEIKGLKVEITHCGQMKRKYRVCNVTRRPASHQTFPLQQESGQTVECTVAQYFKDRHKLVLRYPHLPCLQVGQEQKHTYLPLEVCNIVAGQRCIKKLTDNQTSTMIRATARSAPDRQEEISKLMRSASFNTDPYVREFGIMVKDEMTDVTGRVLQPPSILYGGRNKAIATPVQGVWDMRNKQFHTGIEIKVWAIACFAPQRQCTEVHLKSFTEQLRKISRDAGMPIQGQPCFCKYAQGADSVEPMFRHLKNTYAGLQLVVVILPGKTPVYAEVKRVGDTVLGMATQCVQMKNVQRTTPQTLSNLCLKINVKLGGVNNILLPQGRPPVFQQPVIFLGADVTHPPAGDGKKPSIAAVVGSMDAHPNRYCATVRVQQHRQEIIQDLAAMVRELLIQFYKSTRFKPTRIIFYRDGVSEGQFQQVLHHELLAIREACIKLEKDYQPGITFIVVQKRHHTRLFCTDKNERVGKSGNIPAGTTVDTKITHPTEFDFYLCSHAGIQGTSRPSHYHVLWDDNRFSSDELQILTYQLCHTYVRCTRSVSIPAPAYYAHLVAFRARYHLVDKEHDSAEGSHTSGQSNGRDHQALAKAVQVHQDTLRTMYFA

B1: MBP-LIMD1 140–166 (AB motif) (domain or fragment, UniProt Q9UGP4 140-166, looked up)
chain: GTRHGSQDCGSRESLATSEMSAFHQPG
notes: source: recombinant, purified (details in Supplemental Experimental Procedures)
For B1, the binding result is given as “binds”.

B2: maltose binding protein (MBP)-tagged full-length LIMD1 (natural protein)
chain: not shown
notes: LIMD1, full length; also called MBP-LIMD1; MBP-LIMD1 full-length; source: recombinant, purified (details in Supplemental Experimental Procedures)
For the molecule B2, the binding result is recorded as “binds”.
